Measurements from patent US20030004318A1.

What was measured:
[1] = target: tumor-associated glycoprotein TAG-72 (human); experiment: ELISA on TAG-72-coated plates (FIGS. 7 and 8)
[2] = target: tumor-associated glycoprotein TAG-72 (human); experiment: TAG-72-coated plate assay with 125I goat anti-human IgG probe, Scatchard analysis; mean of 8 analyses

humanized CC49 antibody CC49 HuVH/HuVK (ATCC CRL-12209)
fold less binding than the chimeric MuVH/MuVK antibody [1]: 2 fold
Ka [2]: 4.27e+09 M⁻¹
